Results published in PMC6896899.

Biological target: megalin (human (endogenous in primary PTECs)) (UniProt P98164)
Sequence of UniProt P98164 (P98164 26-4655): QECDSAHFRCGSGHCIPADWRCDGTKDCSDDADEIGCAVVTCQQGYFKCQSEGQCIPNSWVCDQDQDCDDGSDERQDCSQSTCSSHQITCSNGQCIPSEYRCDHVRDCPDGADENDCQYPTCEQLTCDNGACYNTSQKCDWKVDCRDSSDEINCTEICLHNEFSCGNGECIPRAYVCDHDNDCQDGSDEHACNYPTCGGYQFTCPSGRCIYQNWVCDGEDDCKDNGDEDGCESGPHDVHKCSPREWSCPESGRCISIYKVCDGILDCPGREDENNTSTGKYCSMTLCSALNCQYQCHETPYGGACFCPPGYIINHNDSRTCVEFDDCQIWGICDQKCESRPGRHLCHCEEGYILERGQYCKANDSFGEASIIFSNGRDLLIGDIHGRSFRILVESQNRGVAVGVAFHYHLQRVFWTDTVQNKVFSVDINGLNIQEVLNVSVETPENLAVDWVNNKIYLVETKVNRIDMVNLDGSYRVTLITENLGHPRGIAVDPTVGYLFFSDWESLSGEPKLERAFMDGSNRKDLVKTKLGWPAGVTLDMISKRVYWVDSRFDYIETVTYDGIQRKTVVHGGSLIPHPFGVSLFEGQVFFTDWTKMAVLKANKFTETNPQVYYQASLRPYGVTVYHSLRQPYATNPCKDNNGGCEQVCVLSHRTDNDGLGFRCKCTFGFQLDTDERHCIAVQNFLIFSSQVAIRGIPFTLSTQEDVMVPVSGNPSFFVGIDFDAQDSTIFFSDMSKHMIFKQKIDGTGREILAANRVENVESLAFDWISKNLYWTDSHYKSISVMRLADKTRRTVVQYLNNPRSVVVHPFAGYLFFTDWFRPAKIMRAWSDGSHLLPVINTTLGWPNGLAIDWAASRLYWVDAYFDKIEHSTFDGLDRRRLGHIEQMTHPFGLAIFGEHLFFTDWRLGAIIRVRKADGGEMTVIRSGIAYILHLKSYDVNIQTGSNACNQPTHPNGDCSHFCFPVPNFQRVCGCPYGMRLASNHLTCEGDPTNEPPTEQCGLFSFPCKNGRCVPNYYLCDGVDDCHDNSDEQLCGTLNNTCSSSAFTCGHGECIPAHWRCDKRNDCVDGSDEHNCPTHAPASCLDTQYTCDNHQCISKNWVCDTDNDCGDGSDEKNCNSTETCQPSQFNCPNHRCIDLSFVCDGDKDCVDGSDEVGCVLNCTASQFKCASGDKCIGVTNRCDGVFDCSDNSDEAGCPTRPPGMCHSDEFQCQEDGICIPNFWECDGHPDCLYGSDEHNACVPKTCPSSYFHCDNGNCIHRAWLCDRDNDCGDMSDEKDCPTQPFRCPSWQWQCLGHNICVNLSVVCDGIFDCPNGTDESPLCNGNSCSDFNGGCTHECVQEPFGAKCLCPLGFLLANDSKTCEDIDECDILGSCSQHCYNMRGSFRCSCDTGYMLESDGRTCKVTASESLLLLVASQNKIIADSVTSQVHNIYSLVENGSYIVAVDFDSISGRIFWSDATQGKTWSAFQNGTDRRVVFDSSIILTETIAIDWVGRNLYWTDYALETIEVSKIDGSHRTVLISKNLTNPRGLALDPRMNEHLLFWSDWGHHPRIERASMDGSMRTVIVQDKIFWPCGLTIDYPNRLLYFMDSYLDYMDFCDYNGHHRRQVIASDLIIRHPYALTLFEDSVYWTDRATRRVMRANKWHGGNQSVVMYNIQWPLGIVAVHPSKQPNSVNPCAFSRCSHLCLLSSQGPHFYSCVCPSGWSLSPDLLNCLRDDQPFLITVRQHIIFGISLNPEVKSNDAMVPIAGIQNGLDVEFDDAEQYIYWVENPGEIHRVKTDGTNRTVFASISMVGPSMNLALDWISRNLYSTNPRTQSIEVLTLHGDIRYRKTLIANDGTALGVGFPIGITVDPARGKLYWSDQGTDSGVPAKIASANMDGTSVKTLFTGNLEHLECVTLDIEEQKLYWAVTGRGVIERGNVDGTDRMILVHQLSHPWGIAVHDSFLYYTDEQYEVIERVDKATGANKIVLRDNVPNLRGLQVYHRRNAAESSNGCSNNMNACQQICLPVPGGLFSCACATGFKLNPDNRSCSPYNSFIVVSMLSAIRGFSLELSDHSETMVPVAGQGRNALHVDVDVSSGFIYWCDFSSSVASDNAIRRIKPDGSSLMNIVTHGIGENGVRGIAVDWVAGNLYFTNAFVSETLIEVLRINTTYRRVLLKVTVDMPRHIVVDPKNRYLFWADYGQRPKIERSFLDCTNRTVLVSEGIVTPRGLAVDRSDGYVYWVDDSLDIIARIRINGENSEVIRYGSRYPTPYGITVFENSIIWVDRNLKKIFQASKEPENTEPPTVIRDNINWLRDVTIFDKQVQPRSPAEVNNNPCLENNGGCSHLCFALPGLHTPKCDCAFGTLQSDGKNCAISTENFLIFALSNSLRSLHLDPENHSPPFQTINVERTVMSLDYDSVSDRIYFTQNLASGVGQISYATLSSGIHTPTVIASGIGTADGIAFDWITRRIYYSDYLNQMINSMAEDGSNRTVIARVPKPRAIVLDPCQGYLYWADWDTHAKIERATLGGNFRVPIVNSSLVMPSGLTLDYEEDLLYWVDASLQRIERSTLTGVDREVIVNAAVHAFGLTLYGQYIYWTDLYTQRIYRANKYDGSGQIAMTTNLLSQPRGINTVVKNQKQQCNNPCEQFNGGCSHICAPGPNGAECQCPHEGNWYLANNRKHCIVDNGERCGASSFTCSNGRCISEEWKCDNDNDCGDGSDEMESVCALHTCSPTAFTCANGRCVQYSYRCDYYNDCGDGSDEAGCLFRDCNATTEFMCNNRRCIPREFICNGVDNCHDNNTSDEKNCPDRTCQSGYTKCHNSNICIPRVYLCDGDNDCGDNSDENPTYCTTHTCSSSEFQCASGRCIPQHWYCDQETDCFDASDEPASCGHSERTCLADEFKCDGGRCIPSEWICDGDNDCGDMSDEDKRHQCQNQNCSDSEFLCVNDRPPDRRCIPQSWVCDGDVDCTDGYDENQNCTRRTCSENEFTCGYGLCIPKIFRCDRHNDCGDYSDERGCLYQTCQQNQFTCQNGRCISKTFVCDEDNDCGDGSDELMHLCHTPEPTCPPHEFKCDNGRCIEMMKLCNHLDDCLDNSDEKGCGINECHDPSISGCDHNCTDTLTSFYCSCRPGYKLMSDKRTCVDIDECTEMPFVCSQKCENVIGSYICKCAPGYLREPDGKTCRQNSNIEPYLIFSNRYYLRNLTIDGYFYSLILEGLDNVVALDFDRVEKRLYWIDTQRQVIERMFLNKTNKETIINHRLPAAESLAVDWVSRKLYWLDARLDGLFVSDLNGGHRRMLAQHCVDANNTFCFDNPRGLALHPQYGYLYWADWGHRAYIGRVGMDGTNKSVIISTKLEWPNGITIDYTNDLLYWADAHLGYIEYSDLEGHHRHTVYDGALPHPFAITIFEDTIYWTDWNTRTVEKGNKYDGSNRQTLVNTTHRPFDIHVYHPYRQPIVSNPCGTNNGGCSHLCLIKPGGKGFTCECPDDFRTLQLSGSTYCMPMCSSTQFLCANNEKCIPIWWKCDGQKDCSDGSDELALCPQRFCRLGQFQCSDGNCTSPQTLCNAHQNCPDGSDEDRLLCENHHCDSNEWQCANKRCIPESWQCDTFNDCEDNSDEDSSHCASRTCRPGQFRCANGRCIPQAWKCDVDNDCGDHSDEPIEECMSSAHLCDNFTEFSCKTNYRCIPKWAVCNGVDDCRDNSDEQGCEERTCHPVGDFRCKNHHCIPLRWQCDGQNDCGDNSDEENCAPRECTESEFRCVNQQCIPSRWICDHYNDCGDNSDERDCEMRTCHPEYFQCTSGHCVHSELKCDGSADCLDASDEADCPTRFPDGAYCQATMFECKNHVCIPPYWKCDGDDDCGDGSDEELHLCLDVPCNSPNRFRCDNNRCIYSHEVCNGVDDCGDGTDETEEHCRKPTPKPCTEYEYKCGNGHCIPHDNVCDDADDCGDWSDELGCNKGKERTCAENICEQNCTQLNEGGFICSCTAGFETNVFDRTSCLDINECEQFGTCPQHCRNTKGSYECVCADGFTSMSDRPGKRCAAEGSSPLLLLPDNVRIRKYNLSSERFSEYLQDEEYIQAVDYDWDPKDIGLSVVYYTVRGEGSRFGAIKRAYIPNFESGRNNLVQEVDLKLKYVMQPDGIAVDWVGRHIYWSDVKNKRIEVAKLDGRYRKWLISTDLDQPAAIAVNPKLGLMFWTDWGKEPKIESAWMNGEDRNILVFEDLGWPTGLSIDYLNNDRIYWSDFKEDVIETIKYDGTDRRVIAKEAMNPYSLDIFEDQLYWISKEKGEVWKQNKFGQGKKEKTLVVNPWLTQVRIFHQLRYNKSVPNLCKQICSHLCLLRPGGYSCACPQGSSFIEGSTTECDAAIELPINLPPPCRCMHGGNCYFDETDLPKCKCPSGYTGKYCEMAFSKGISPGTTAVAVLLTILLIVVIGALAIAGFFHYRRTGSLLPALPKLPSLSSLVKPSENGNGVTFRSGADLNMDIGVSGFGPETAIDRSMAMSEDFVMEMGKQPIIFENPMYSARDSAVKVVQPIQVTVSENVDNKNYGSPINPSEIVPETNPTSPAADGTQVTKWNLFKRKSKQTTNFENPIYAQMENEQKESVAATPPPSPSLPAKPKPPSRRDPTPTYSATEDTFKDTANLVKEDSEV

intrinsic clearance of 25OHD3 loss (CLint,25OHD3) from the perfusion medium of the PT-MPS with 3 uM DBP; fold-change with 1 uM RAP (megalin inhibitor) against no RAP, geometric mean of 5 donors (fold reduction): 2.4
Substance: Mixed type human vitamin D binding protein (from UniProt P02774 17-474) (natural protein)
